Reference: the supplement of paper PMC10567573

B1: KLHL14 (parent)
chain: NETGYLSSVECYNLETNEWRYVSS
B2: ANKRD9 (parent)
chain: VGAAGSARQELLGDRPRWQRLLGE
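Note: lentivirally expressed fusions sorted by FACS into six bins by GFP to DsRed ratio, PSI derived from sequencing read proportions per bin multiplied by bin number.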

Variants of: B1
Experiment: protein stability index of a GFP-peptide fusion (GPS, HEK-293T) (PSI 1-6); higher = more stable
Conditions: c terminus: a fixed tail appended
Variant NENGYLSSVECYNLETNEWRYVSS [T3N] has a protein stability index of 3.78.
In the case of NEGGYLSSVECYNLETNEWRYVSS [T3G], the protein stability index is reported as 3.01.
In the case of NETGYLSSVECYNLETNMWRYVSS [E18M], the protein stability index is reported as 2.92.
NETGYLSSVECYNLETNCWRYVSS [E18C] showed a protein stability index of 2.55.
NETGYLSSVECYNLETNLWRYVSS [E18L] gave a protein stability index of 3.02.
Work on NETGYLSSVECYNLETNGWRYVSS [E18G] yielded a protein stability index of 2.36.
With NETGYLSSVECYNLETNYWRYVSS [E18Y] the protein stability index was 2.57.
Variant NETGYLSSVECYNLETNEWRYVPS [S23P] has a protein stability index of 3.39.
In the case of NETGYLSSVECYNLETNEWRYVNS [S23N], the protein stability index is reported as 3.98.
NETGTLSSVECYNLETNEWRYVSS [Y5T] gave a protein stability index of 4.72.
Work on NETGFLSSVECYNLETNEWRYVSS [Y5F] yielded a protein stability index of 3.71.
NETGMLSSVECYNLETNEWRYVSS [Y5M] gave a protein stability index of 3.64.
For NETGYLSSVECYNLETNEYRYVSS [W19Y], the protein stability index was 4.5.
In the case of NETGYLSSVECYNLETNENRYVSS [W19N], the protein stability index is reported as 5.05.
Variant NETMYLSSVECYNLETNEWRYVSS [G4M] has a protein stability index of 2.77.
With NETKYLSSVECYNLETNEWRYVSS [G4K] the protein stability index was 3.56.
NETYYLSSVECYNLETNEWRYVSS [G4Y] showed a protein stability index of 2.46.
For NETHYLSSVECYNLETNEWRYVSS [G4H], the protein stability index was 3.17.
For NETGYLFSVECYNLETNEWRYVSS [S7F], the protein stability index was 1.64.
NETGYLISVECYNLETNEWRYVSS [S7I] gave a protein stability index of 2.46.
NETGYLHSVECYNLETNEWRYVSS [S7H] gave a protein stability index of 2.8.
NETGYLSSVECYILETNEWRYVSS [N13I] gave a protein stability index of 1.52.
NETGYLSSVECYYLETNEWRYVSS [N13Y] showed a protein stability index of 2.63.
With NETGYLSSVECYDLETNEWRYVSS [N13D] the protein stability index was 3.83.
Work on NETGYLSSVECYELETNEWRYVSS [N13E] yielded a protein stability index of 2.79.
NETGYLSSVECYNLETNEWRYESS [V22E] showed a protein stability index of 4.18.
For NETGYLSSAECYNLETNEWRYVSS [V9A], the protein stability index was 4.07.
NETGYLSSLECYNLETNEWRYVSS [V9L] gave a protein stability index of 3.12.
NETGYLSSQECYNLETNEWRYVSS [V9Q] showed a protein stability index of 3.85.
NETGYLSSVECVNLETNEWRYVSS [Y12V] showed a protein stability index of 4.09.
With NETGYLSSVECGNLETNEWRYVSS [Y12G] the protein stability index was 3.76.
Variant NETGYLSSVECYNLYTNEWRYVSS [E15Y] has a protein stability index of 2.15.
In the case of NETGYLSSVECYNLPTNEWRYVSS [E15P], the protein stability index is reported as 2.54.
With NETGYLSSVECYNLETNEWRYVSH [S24H] the protein stability index was 3.82.
Work on NETGYLSSVACYNLETNEWRYVSS [E10A] yielded a protein stability index of 2.72.
In the case of NETGYLSSVQCYNLETNEWRYVSS [E10Q], the protein stability index is reported as 3.42.
NETGYLSSVECYNSETNEWRYVSS [L14S] showed a protein stability index of 4.68.
Variant NETGYLSSVECYNWETNEWRYVSS [L14W] has a protein stability index of 3.11.
In the case of NETGYLSSVECYNLETNEWYYVSS [R20Y], the protein stability index is reported as 2.18.
For NETGYLSSVECYNLETNEWEYVSS [R20E], the protein stability index was 4.04.
Variant NETGYLSSVECYNLETNEWDYVSS [R20D] has a protein stability index of 4.12.
NETGYLSSVECYNLEGNEWRYVSS [T16G] showed a protein stability index of 3.83.
NPTGYLSSVECYNLETNEWRYVSS [E2P] showed a protein stability index of 2.72.
Work on NYTGYLSSVECYNLETNEWRYVSS [E2Y] yielded a protein stability index of 1.88.
Work on NITGYLSSVECYNLETNEWRYVSS [E2I] yielded a protein stability index of 2.37.
Variant NGTGYLSSVECYNLETNEWRYVSS [E2G] has a protein stability index of 2.43.
With QETGYLSSVECYNLETNEWRYVSS [N1Q] the protein stability index was 3.31.
With YETGYLSSVECYNLETNEWRYVSS [N1Y] the protein stability index was 2.79.
In the case of LETGYLSSVECYNLETNEWRYVSS [N1L], the protein stability index is reported as 3.04.
NETGYPSSVECYNLETNEWRYVSS [L6P] gave a protein stability index of 4.19.
For NETGYTSSVECYNLETNEWRYVSS [L6T], the protein stability index was 3.97.
In the case of NETGYCSSVECYNLETNEWRYVSS [L6C], the protein stability index is reported as 3.21.
Variant NETGYMSSVECYNLETNEWRYVSS [L6M] has a protein stability index of 3.45.
In the case of NETGYLSSVECYNLETFEWRYVSS [N17F], the protein stability index is reported as 2.9.
Variant NETGYLSSVECYNLETNEWRNVSS [Y21N] has a protein stability index of 3.67.
With NETGYLSSVECYNLETNEWRVVSS [Y21V] the protein stability index was 3.57.
In the case of NETGYLSSVECYNLETNEWRIVSS [Y21I], the protein stability index is reported as 2.87.
NETGYLSSVECYNLETNEWRSVSS [Y21S] gave a protein stability index of 3.61.

Variants of: B2
Experiment: as above
Conditions: c terminus: a fixed tail appended
VGAAGSARQELLGDRPRWQRLLGK [E24K] gave a protein stability index of 3.7.
In the case of VGAAGSARQELLGDRPRWQRLLGC [E24C], the protein stability index is reported as 2.1.
Variant VGAAGSARQELLGDRPRWQRLLGW [E24W] has a protein stability index of 2.33.
With VGAAGSARQELLGDRPRWQRLLGQ [E24Q] the protein stability index was 2.63.
Work on VGAAGSARQELLGDRPRWQRLLGN [E24N] yielded a protein stability index of 3.17.
With VGAAGSARQELLGDRPRWQRLLGR [E24R] the protein stability index was 3.26.
VGAAGSARQELLGDRPRWQRLLGY [E24Y] showed a protein stability index of 2.37.
Variant VGAAGSARQELLGDRPRWQRLLGS [E24S] has a protein stability index of 2.77.
VGAAGSARQELLGDRPRWQRLLGT [E24T] showed a protein stability index of 3.
With VGAAGSARQELLGDRPRWQRLLGF [E24F] the protein stability index was 2.68.
In the case of VGAAGSARQELLGDRPRWQRLLGA [E24A], the protein stability index is reported as 3.
For VGAAGSARQELLGDRPRWQRLLGI [E24I], the protein stability index was 2.27.
With VGAAGSARQELLGDRPRWQRLLGG [E24G] the protein stability index was 3.2.
With VGAAGSARQELLGDRPRWQRLLGP [E24P] the protein stability index was 2.75.
In the case of VGAAGSARQELLGDRPRWQRLLGL [E24L], the protein stability index is reported as 2.38.
In the case of VGAAGSARQELLGDRPRWQRLLGV [E24V], the protein stability index is reported as 2.45.
Work on VGAAGSARQELLGDRPRWQRLLGH [E24H] yielded a protein stability index of 2.96.
With VGAAGSARQELLGDRPRWQRLLGM [E24M] the protein stability index was 3.34.
VGAAGSARQELLGDRPRWQRLLGD [E24D] gave a protein stability index of 3.13.
Variant VGAAGSARQELLGDRPRWQRLLDE [G23D] has a protein stability index of 3.84.
With VGAAGSARQELLGDRPRWQRLLTE [G23T] the protein stability index was 2.98.
With VGAAGSARQELLGDRPRWQRLLVE [G23V] the protein stability index was 2.78.
VGAAGSARQELLGDRPRWQRLLQE [G23Q] gave a protein stability index of 3.4.
VGAAGSARQELLGDRPRWQRLLIE [G23I] showed a protein stability index of 2.88.
Work on VGAAGSARQELLGDRPRWQRLLEE [G23E] yielded a protein stability index of 3.39.
In the case of VGAAGSARQELLGDRPRWQRLLKE [G23K], the protein stability index is reported as 3.19.
VGAAGSARQELLGDRPRWQRLLRE [G23R] gave a protein stability index of 2.99.
With VGAAGSARQELLGDRPRWQRLLFE [G23F] the protein stability index was 2.71.
VGAAGSARQELLGDRPRWQRLLPE [G23P] gave a protein stability index of 3.22.
VGAAGSARQELLGDRPRWQRLLYE [G23Y] showed a protein stability index of 2.88.
For VGAAGSARQELLGDRPRWQRLLSE [G23S], the protein stability index was 4.39.
Work on VGAAGSARQELLGDRPRWQRLLWE [G23W] yielded a protein stability index of 2.64.
Variant VGAAGSARQELLGDRPRWQRLLLE [G23L] has a protein stability index of 3.58.
For VGAAGSARQELLGDRPRWQRLLHE [G23H], the protein stability index was 2.61.
In the case of VGAAGSARQELLGDRPRWQRLLME [G23M], the protein stability index is reported as 3.23.
Variant VGAAGSARQELLGDRPRWQRLLNE [G23N] has a protein stability index of 3.12.
